Results published in IntAct's records for PubMed 10206957.

B1: Signal peptidase complex catalytic subunit SEC11 (Saccharomyces cerevisiae), P15367 (parent)
chain: MNLRFELQKLLNVCFLFASAYMFWQGLAIATNSASPIVVVLSGSMEPAFQRGDILFLWNRNTFNQVGDVVVYEVEGKQIPIVHRVLRQHNNHADKQFLLTKGDNNAGNDISLYANKKIYLNKSKEIVGTVKGYFPQLGYITIWISENKYAKFALLGMLGLSALLGGE
partner: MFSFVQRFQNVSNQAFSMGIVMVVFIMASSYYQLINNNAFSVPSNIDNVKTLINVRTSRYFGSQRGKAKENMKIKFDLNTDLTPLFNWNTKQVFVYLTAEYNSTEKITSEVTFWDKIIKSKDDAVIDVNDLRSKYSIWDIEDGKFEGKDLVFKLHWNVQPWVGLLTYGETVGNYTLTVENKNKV

Variants of: B1
Settings: with spc3_yeast SPC3, Q12133

Variant | effect of a mutation on the interaction
MNLRFELQKLLNVCFLFASAYMFWQGLAIATNSASPIVVVLSGSMEPAFQRGDILFLWNRNTFNQVGDVVVYEVEGKQIPIVHRVLRQHNNHADKQFLLTKGNNNAGNDISLYANKKIYLNKSKEIVGTVKGYFPQLGYITIWISENKYAKFALLGMLGLSALLGGE [D103N] | decreasing interaction
